Changes are numbered by the printed parent chain.
Assays:
ChrR = target: T1, ChrR (Escherichia coli, UniProt P0AGE6); test: X-ray crystallography, […] Å; assay type: binding; details: bound at active site, non-covalent; crystals at PEG8000, NaCl, calcium acetate
T1 construct: full-length recombinant from E. coli BL21 (DE3), pET28a (His) or pTYB3 (intein), tags removed by thrombin or DTT; untagged WT crystallized; tetramer; residues 4-184 (chain A) and 4-185 (chain B) seen in crystal
T1 sequence (P0AGE6 1-188): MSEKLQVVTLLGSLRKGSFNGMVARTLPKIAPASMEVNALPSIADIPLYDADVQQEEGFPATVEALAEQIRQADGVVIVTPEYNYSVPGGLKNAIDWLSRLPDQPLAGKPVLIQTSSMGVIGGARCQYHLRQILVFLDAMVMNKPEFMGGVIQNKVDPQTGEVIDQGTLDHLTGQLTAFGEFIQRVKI

[1] = target: the molecule itself; test: crystal structure; untagged wild type ChrR at 26 mg/mL, sitting drop vapor diffusion, PEG8000, sodium chloride, calcium acetate; 2.2 Å, space group P6(3)22; two molecules (a homo-dimer) in the asymmetric unit, tetramer formed by two symmetry related dimers
[2] = target: the molecule itself; test: SEC; analytic Superdex 200 10/300 column, 0.5 mL per min; proteins pre-incubated with FMN (1 mM, 2 h); various protein concentrations, including those used for measuring the enzyme activity

`Cc1cc2nc3c(=O)[nH]c(=O)nc-3n(C[C@H](O)[C@H](O)[C@H](O)COP(=O)(O)O)c2cc1C` [FMN, flavin mononucleotide] was tested, and the “X-ray crystallography, 2.2 Å” value (ChrR) was “FMN is anchored by several hydrogen bonds to a typical strand-loop-helix nucleotide-binding motif”.

B1: Escherichia coli ChrR enzyme, wild type (enzyme)
chain: EKLQVVTLLGSLRKGSFNGMVARTLPKIAPASMEVNALPSIADIPLYDADVQQEEGFPATVEALAEQIRQADGVVIVTPEYNYSVPGGLKNAIDWLSRLPDQPLAGKPVLIQTSSMGVIGGARCQYHLRQILVFLDAMVMNKPEFMGGVIQNKVDPQTGEVIDQGTLDHLTGQLTAFGEFIQRVKI
notes: ChrR, quinone reductase with chromate reductase activity, Escherichia coli; the crystal structure models residues 4-184 (chain A) and 4-185 (chain B); The crystallised protein is called untagged; also called ChrR WT; native ChrR; source: E. coli BL21 (DE3), purified (His-Trap nickel or chitin bead column, tag removed, gel filtration on Superdex 200)
For B1, the “stoichiometry N” value [1] was 4.

B2: ChrR43 (Arg125Met) (enzyme, Escherichia coli)
chain: B1 chain with R123M
notes: ChrR, Escherichia coli, with Arg125Met; PDB 3SVL is the wild-type parent; source: E. coli BL21 (DE3), pET28a, purified (His-Trap nickel column, tag removed, gel filtration)
For B2, the “stoichiometry N” value [2] was 4.

B3: ChrR21 (Tyr128Asn) (enzyme, Escherichia coli)
chain: B1 chain with Y126N
notes: ChrR, Escherichia coli, with Tyr128Asn; PDB 3SVL is the wild-type parent; source: E. coli BL21 (DE3), pET28a, purified (His-Trap nickel column, tag removed, gel filtration)
B3 was tested, and the “stoichiometry N” value [2] was 4.

B4: ChrR41 (Glu146Thr) (enzyme, Escherichia coli)
chain: B1 chain with E144T
notes: ChrR, Escherichia coli, with Glu146Thr; PDB 3SVL is the wild-type parent; source: E. coli BL21 (DE3), pET28a, purified (His-Trap nickel column, tag removed, gel filtration)
With B4 the “stoichiometry N” value [2] was 4.

B5: ChrR42 (Tyr85Asn) (enzyme, Escherichia coli)
chain: B1 chain with Y83N
notes: ChrR, Escherichia coli, with Tyr85Asn; PDB 3SVL is the wild-type parent; source: E. coli BL21 (DE3), pET28a, purified (His-Trap nickel column, tag removed, gel filtration)
B5 was tested, and the “stoichiometry N” value [2] was 4.

— paper PMC3338774, “Crystal Structure of ChrR—A Quinone Reductase with the Capacity to Reduce Chromate” (PLoS ONE, 2012)
